{"source": "the RNAGym collection of RNA variant scans (doi:10.1073/pnas.2313332121)", "parents": {"B1": {"name": "TPR 5TU (parent)", "chain": "GGAUCUUCUCGAUCUAACAAAAAAGACAAAUCUGCCACAAAGCUUGAGAGCAUCUUCGGAUGCAGAGGCGGCAGCCUUCGGUGGCGCGAUAGCGCCAACGUUCUCAACUAUGACACGCAAAACGCGUGCUCCGUUGAAUGGAGUUUAUCAUG"}}, "note": "Fewer inactive variants are shown than the library holds."}
{"variants_of": "B1", "test": "polymerase ribozyme fitness, log enrichment relative to wild type (log ratio); higher = more active; in vitro selection for triplet polymerase activity", "how_it_was_run": "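Fitness compares each genotype's enrichment to that of the wild type on a logarithmic scale, averaging replicates with inverse-variance weights. The logarithm is base 2. Enrichment came from Illumina sequencing of input and output libraries after one triplicate round of in vitro selection, which included frozen incubation at −7 °C, of PCR-built, transcribed mutant libraries of each subunit of a heterodimeric triplet polymerase ribozyme. Only genotypes with ≥10 input reads and ≥1 read per output were kept.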"}
{"variant": "G42A G46U U55G C72G", "polymerase ribozyme fitness (log ratio)": "≤ -4.2"}
{"variant": "A41U A89G U90C G94A A121C", "polymerase ribozyme fitness (log ratio)": "≤ -4.2"}
{"variant": "A41G C93A A147C", "polymerase ribozyme fitness (log ratio)": -1.52}
{"variant": "U44A A47C U56A G84C C87G", "polymerase ribozyme fitness (log ratio)": "≤ -4.2"}
{"variant": "A41U U55A A66G C93U A110G G140A", "polymerase ribozyme fitness (log ratio)": "≤ -4.2"}
{"variant": "G42A G88A C96A C118G G126U", "polymerase ribozyme fitness (log ratio)": "≤ -4.2"}
{"variant": "A41C U53C A122C C123A G141U U144G", "polymerase ribozyme fitness (log ratio)": -3.18}
{"variant": "C43U C96A C116G A137U", "polymerase ribozyme fitness (log ratio)": "≤ -4.2"}
{"variant": "A41C U56A G83U U127C G152A", "polymerase ribozyme fitness (log ratio)": -4.07}
{"variant": "G42A", "polymerase ribozyme fitness (log ratio)": -3.47}
{"variant": "G42C", "polymerase ribozyme fitness (log ratio)": -3.77}
{"variant": "G42U", "polymerase ribozyme fitness (log ratio)": -3.47}
{"variant": "U45A U56C C57A C63G C87G G88C", "polymerase ribozyme fitness (log ratio)": "≤ -4.2"}
{"variant": "G42C U55A", "polymerase ribozyme fitness (log ratio)": -4.09}
{"variant": "U44A C72A C87U C99G U135A", "polymerase ribozyme fitness (log ratio)": "≤ -4.2"}
{"variant": "U45G U61A", "polymerase ribozyme fitness (log ratio)": -2.35}
{"variant": "G42A U61A G86A", "polymerase ribozyme fitness (log ratio)": "≤ -4.2"}
{"variant": "A41G G58U G59C", "polymerase ribozyme fitness (log ratio)": -0.488}
{"variant": "U44A U53G", "polymerase ribozyme fitness (log ratio)": "≤ -4.2"}
{"variant": "U45G U56A G88A C93G A119G G143U", "polymerase ribozyme fitness (log ratio)": "≤ -4.2"}
{"variant": "G42C G48U U61A A110U", "polymerase ribozyme fitness (log ratio)": "≤ -4.2"}
{"variant": "G42C U56A C85U C95A U127C G143U", "polymerase ribozyme fitness (log ratio)": "≤ -4.2"}
{"variant": "G42U C43G G86U G94U U144A", "polymerase ribozyme fitness (log ratio)": "≤ -4.2"}
{"variant": "G42A C76U G81U G83C A110U C114G", "polymerase ribozyme fitness (log ratio)": "≤ -4.2"}
{"variant": "U44G U55A A91U G141C", "polymerase ribozyme fitness (log ratio)": "≤ -4.2"}
{"variant": "A41U U53G U56C U146C U151G", "polymerase ribozyme fitness (log ratio)": "≤ -4.2"}
{"variant": "A41U G86A A89U C114U", "polymerase ribozyme fitness (log ratio)": -4.16}
{"variant": "U44A A66U C85A", "polymerase ribozyme fitness (log ratio)": "≤ -4.2"}
{"variant": "G42C U61A C75G C93A", "polymerase ribozyme fitness (log ratio)": "≤ -4.2"}
{"variant": "G42C U61A A64G A107G U130C", "polymerase ribozyme fitness (log ratio)": "≤ -4.2"}
{"variant": "A41U U102C U146G", "polymerase ribozyme fitness (log ratio)": -3.93}
{"variant": "A41G A52G U77G C87U G100C C103G A138G", "polymerase ribozyme fitness (log ratio)": "≤ -4.2"}
{"variant": "U44A C103G A115U", "polymerase ribozyme fitness (log ratio)": "≤ -4.2"}
{"variant": "C43G U53A G81U U82C", "polymerase ribozyme fitness (log ratio)": "≤ -4.2"}
{"variant": "U45G U55G C76U G84A", "polymerase ribozyme fitness (log ratio)": -3.76}
{"variant": "G42A G59A G80A", "polymerase ribozyme fitness (log ratio)": "≤ -4.2"}
{"variant": "U44A C93U A120G", "polymerase ribozyme fitness (log ratio)": -4.11}
{"variant": "C43U G88A G94A A122G", "polymerase ribozyme fitness (log ratio)": "≤ -4.2"}
{"variant": "U45A A52U C85A U139G", "polymerase ribozyme fitness (log ratio)": "≤ -4.2"}
{"variant": "U45A A60C C79U C99U U101G G136U", "polymerase ribozyme fitness (log ratio)": "≤ -4.2"}
{"variant": "U45A G48U G50C C85A C87A C95A U145C", "polymerase ribozyme fitness (log ratio)": "≤ -4.2"}
{"variant": "U44G G48A G83C", "polymerase ribozyme fitness (log ratio)": "≤ -4.2"}
{"variant": "U44A G65C A89U", "polymerase ribozyme fitness (log ratio)": "≤ -4.2"}
{"variant": "G42U G48A U55A C118A A137G", "polymerase ribozyme fitness (log ratio)": "≤ -4.2"}
{"variant": "A41C U151G", "polymerase ribozyme fitness (log ratio)": -3.63}
{"variant": "G42A G62A G65U G136U", "polymerase ribozyme fitness (log ratio)": "≤ -4.2"}
{"variant": "G42C G84A A122U", "polymerase ribozyme fitness (log ratio)": "≤ -4.2"}
{"variant": "U44A C76U C87A C105A A107G U127A U145C G152U", "polymerase ribozyme fitness (log ratio)": "≤ -4.2"}
{"variant": "A41G A60U A121C U144A", "polymerase ribozyme fitness (log ratio)": -1.13}
{"variant": "G42U G68C G94U", "polymerase ribozyme fitness (log ratio)": "≤ -4.2"}
{"variant": "U44A A47C A52G C79U C85U C118U", "polymerase ribozyme fitness (log ratio)": "≤ -4.2"}
{"variant": "G42U A73C C95U A98C U144A", "polymerase ribozyme fitness (log ratio)": "≤ -4.2"}
{"variant": "U45A A73U C79A C93U A121G", "polymerase ribozyme fitness (log ratio)": "≤ -4.2"}
{"variant": "G42C G86U A150U", "polymerase ribozyme fitness (log ratio)": "≤ -4.2"}
{"variant": "C43A U55A G92A", "polymerase ribozyme fitness (log ratio)": "≤ -4.2"}
{"variant": "C43U C116G", "polymerase ribozyme fitness (log ratio)": -3.65}
{"variant": "G42A A66U A89G U145A", "polymerase ribozyme fitness (log ratio)": "≤ -4.2"}
{"variant": "A41U C99A A107U G117A A122U G128A", "polymerase ribozyme fitness (log ratio)": "≤ -4.2"}
{"variant": "C43G A97U C123U C125A U148G", "polymerase ribozyme fitness (log ratio)": "≤ -4.2"}
{"variant": "C43U G58A G86A U90G U144A", "polymerase ribozyme fitness (log ratio)": "≤ -4.2"}
{"variant": "A41U A49G G58C G92A C95A C123A", "polymerase ribozyme fitness (log ratio)": "≤ -4.2"}
{"variant": "C43U G80U C93G C99G", "polymerase ribozyme fitness (log ratio)": "≤ -4.2"}
{"variant": "G42C C75G", "polymerase ribozyme fitness (log ratio)": "≤ -4.2"}
{"variant": "C43U A49G G84C G140U U146G", "polymerase ribozyme fitness (log ratio)": "≤ -4.2"}
{"variant": "G42C G46A C75G A91G U102G G133U G152A", "polymerase ribozyme fitness (log ratio)": "≤ -4.2"}
{"variant": "G42C U56G G68U U78A C93U A142C", "polymerase ribozyme fitness (log ratio)": "≤ -4.2"}
{"variant": "C43G G83A", "polymerase ribozyme fitness (log ratio)": "≤ -4.2"}
{"variant": "A41U C85A", "polymerase ribozyme fitness (log ratio)": -3.35}
{"variant": "C43U U45G G46C A49U U82A A89U C108G", "polymerase ribozyme fitness (log ratio)": "≤ -4.2"}
{"variant": "A41U C85U A122G", "polymerase ribozyme fitness (log ratio)": -1.39}
{"variant": "A41U C54A G92A", "polymerase ribozyme fitness (log ratio)": "≤ -4.2"}
{"variant": "U45A C87U C132G U139C G143A U145G", "polymerase ribozyme fitness (log ratio)": "≤ -4.2"}
{"variant": "U45C U56A A64C G74A G94C C114U A115U", "polymerase ribozyme fitness (log ratio)": "≤ -4.2"}
{"variant": "A41G A52G C69U C93U G94C U146C", "polymerase ribozyme fitness (log ratio)": -2.71}
{"variant": "C43A G92C", "polymerase ribozyme fitness (log ratio)": "≤ -4.2"}
{"variant": "U45A A60G A66C G68C C69U", "polymerase ribozyme fitness (log ratio)": "≤ -4.2"}
{"variant": "U45C C108G", "polymerase ribozyme fitness (log ratio)": "≤ -4.2"}
{"variant": "G42A G46U U82A A121U", "polymerase ribozyme fitness (log ratio)": -4.16}
{"variant": "C43U U45G C131A G136U", "polymerase ribozyme fitness (log ratio)": "≤ -4.2"}
{"variant": "A41G A66C A89C G92U A97U G124U", "polymerase ribozyme fitness (log ratio)": "≤ -4.2"}
{"variant": "G42U U55A", "polymerase ribozyme fitness (log ratio)": -4.17}
{"variant": "G42A G71U G126A A138C", "polymerase ribozyme fitness (log ratio)": "≤ -4.2"}
{"variant": "A41U U56A G84U C118A C125G", "polymerase ribozyme fitness (log ratio)": -4.09}
{"variant": "U45G G94U G100C A150C", "polymerase ribozyme fitness (log ratio)": "≤ -4.2"}
